Measured values reported in the supplement of paper PMC9170038.

System: K4 kissing-loop RNA reporter
Assay: apparent KD of K4 kissing-loop reporter; higher = weaker reporter binding
Conditions: Eterna round: R107
Description: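 RNA-MaP round R107: designed RNA switches with theophylline, tryptophan, arginine or FMN aptamers are transcribed on-chip within common flanks. They are titrated with a labelled K4 kissing-loop RNA reporter in RNA-MaP buffer (100 mM Tris pH 7.5, 80 mM KCl, 4 mM MgCl2), without ligand or with the indicated ligand. Median apparent KD per design.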

[1] = input ligand: theophylline 20 uM
[2] = input ligand: tryptophan 2.4 mM
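Further: bound reporter read as fluorescence of individual clusters on recovered sequencing chips by microscopy, with normalized cluster intensities fitted with a binding model.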

Sequence	apparent KD of K4 kissing-loop reporter (input ligand: FMN 200 uM)	apparent KD of K4 kissing-loop reporter (input ligand: arginine 13.2 mM)	apparent KD of K4 kissing-loop reporter (input ligand: none)	apparent KD of K4 kissing-loop reporter [1]	apparent KD of K4 kissing-loop reporter [2]
GGGUCUGCGCGAAGGAGCGCCCUGACAGGUUGCUGCCGUGGGCAGUGAUGUUGCUCAGUCCGGCAGGUAGGUCGCGUGCAGACCC	135 nM	161 nM	176 nM	169 nM	160 nM
UGCCGGGCUGUACGUUACUUAAAUCGCGAUACCAGCGAUACAAUCCGCCCUUGGCAGCGCAGUGAUGUUGCGCGGUCAUUACGGG [theeternabot_exclusion_KL_Theo_A_27]	100 nM	90.5 nM	95.8 nM	103 nM	91.4 nM
CGCAGUGAUGUUGCGAGUAGCUACAGGGAAGGAGCGUGCUAGAGCACAGGUAGGUCGCCCUCGGGCAGUGAUGUUGCCAAAGGUU [Exclusion ARginine A GF 16]	77.1 nM	85.2 nM	79.8 nM	80.6 nM	68.3 nM
CGAUUUGCUUCAGCCUUAGUGAUGUUAAGGCGAGGACCGGUACGGCCGCCACUCGUAGGUUAUGUGCACGGCGGCGCUAAGGGCC [theeternabot_exclusion_KL_Trp_A_36]	109 nM	107 nM	111 nM	120 nM	108 nM
UAUAAGCGCAGAGGAUAUACUAGCUUUCACUAGUGCAGUGAUGUUGCACUAGACCAGCUGUACAUAGUAGAAGGCUGCGUUCCUU [FMN B SS t1]	89.1 nM	116 nM	112 nM	131 nM	117 nM
GGAUCCUAGGCGGCCGCCACUCCAAUUGGCCGAAAGGCCUGAUACCGAGUGAUGUUCGGUUGGAGGAGGACCGGGCCUAGGAUCC [#2 Exclusion - Tryptophan B Attempt #2 (HarryS)]	144 nM	132 nM	118 nM	165 nM	104 nM
GCGCGGGUCAGUGAUGUUGACCCUCGGAGACGAGGACCGGUACGGCCGCCACUCGUCCGCGCAGCUGAGGCAAAAGCCUCGGCAA [Omei KL Tryp A SS B v5]	155 nM	142 nM	140 nM	131 nM	103 nM
GCCGUAGAUUGAAGGAGCGUUCUUACUGAUUACGGCAGCCGGAAGUGAUGUUUCCAGGUGGAACAGGUAGGUCGCAAUCUACGGC	104 nM	87.2 nM	96 nM	99.8 nM	92 nM
GCGCGCGGCGGAGGAUAUAGCCGGUGAUCCGAGAAAGUGAGUGAUGUUUACGGAGUUGAGGAUAUGUUAGAAGGCCGCCGCGCGC [abcdefghijklmnopqrstuvwx]	339 nM	751 nM	1000 nM	792 nM	789 nM
AUUUAAUUAACUGAUACCAGACUUUUUGUUUUGUAUAUUACUAGUGAUGUUAGUGUUUCUGUCCCUUGGCAGCAGUAUCUACUUA [JR_ExcTheophyB_Sub016]	197 nM	252 nM	225 nM	298 nM	157 nM
GGAUAGGACAGAGGAUAUGGCAGUCUACAAAGUAGGCUGAAAUAAAUCCUUGAAUGGAGUGAUGUUCCAGAAGGCUGUCCUAUCG [FmnBX 23 #SwitchBubble #StaticStem #Palindromic]	911 nM	156 nM	158 nM	169 nM	172 nM
ACGCUAGCUACCGAAAGGUAGCUAGCGAGUGAGGAUAUGUGGAAACACAGAAGGCACAGCGCAGUGAUGUUGUGCGGCGGAAGCG [whbob_SS_FMNA__2th168]	604 nM	221 nM	631 nM	664 nM	473 nM
AUCAUUAGUUCGGCCGCCACUCCAGUGAUGUUGGAGGGACGCAUAAUAUGCGCGCGGCUAACUAGGAGGACCGGGAACUUUAGGC [Maonce]	82.8 nM	115 nM	133 nM	86.9 nM	156 nM
CUUGAUGUGUCGGCCGCCACUGGUAUAGGCGGACUAUAACGACAUGAGUGAUGUUCAUGUUCGUCUAGGACCGGGACACAUUGUA [Tryp B SS t4]	112 nM	97.4 nM	104 nM	100 nM	111 nM
GUAGACAGACUGCAAGCCUAGUCUACAGACUAGGAUAUCAGGAAACUGAGAAGGAGUCUAGUUGCAGUGAUGUUGCAAGAAUAAU [KL-SSFMN-A24]	120 nM	135 nM	123 nM	140 nM	99.8 nM
UUAUAUUUUAUAUUUAGUAGAGCUCUAGCUCGAGGACCGGUACGGCCGCCACUCGAGUGAUGUUCGAGUGGGUGAGCUCUACAUU [AK3 EXC Tryptophan A]	124 nM	95.7 nM	103 nM	101 nM	363 nM
GUGCGCGCGGCGGCCGCCACUCGCAUGAGAGUGAUGUUCUCGGGACUGACGGAAGUCAGUCAUGGGAGGACCGGGCCGGGCUGCG [#2 Same State - Tryptophan B Attempt #13 (HarryS)]	360 nM	958 nM	208 nM	1140 nM	521 nM
CCAGGAUGAUGAGGAUGAUAAAUUACUGAAGGAGCGCAUAUGGUUGCAGGUAGGUCGCGGUGAAUAAGUAUAGUGAUGUUAUGCC [SSArgA.Y]	970 nM	612 nM	561 nM	801 nM	761 nM
UGGGAUGUUAAAGGAUAUAGAAAGUGAUAUUAGAAAGUGAGUGAUGUUGAUGUAAGUGAUGAUAUGUUAGAAGGUUAACAAAACG [abcd]	431 nM	363 nM	499 nM	472 nM	379 nM
GUUACGCAUGGAAGGAGCGCUCUCCGGCUUAUUAACACAGUGAUGUUGUGAUUUUGCCGAAAGCAGGUAGGUCGCCAUGUGUAAC [Ex Arginine B K4 11]	487 nM	363 nM	451 nM	447 nM	451 nM
GAUGAUCGCGCGGCCGCCACUGGUCAGUGAUGUUGACAUUAAUGCGCCGAGUAGUAACGGCGCAGUAGGACCGGGCGCGAUGUAG [#13 K4 Tryptophan B Same State]	151 nM	139 nM	139 nM	198 nM	110 nM

Sequence	apparent KD of K4 kissing-loop reporter (input ligand: FMN 200 uM)	apparent KD of K4 kissing-loop reporter (input ligand: arginine 13.2 mM)	apparent KD of K4 kissing-loop reporter (input ligand: none)	apparent KD of K4 kissing-loop reporter [1]	apparent KD of K4 kissing-loop reporter [2]
AUACAUGUAAAUCUAUAUGUAUAAUGGAGCCGAGGACCGGUACGGCCGCCACUCGGAGUAAUCGGAGUGAUGUUCCGAAAUGUAC [KL-SSTryp-A sub13]	93.7 nM	119 nM	104 nM	123 nM	64.6 nM
AUUAAUUUCAGAGGAUAUCGUAAUUUUAUUUAAUUUAUUCAUUUAUGCAGUGAUGUUGCUAAUAUUCGAGAAGGCUGAUUUAUAA [JR_ExcFMNB_Sub007]	103 nM	121 nM	55.8 nM	115 nM	52.2 nM
UGGGAUGGGCGAGGAUAUGGUGAGGUGGCGGUUGUUAGUGAUGUUGGUGAUGCUAGUGAUGUUUGUCCAGAAGGCGCGGGAUUUU [BDazzled]	218 nM	104 nM	171 nM	179 nM	168 nM
GCUAUGGUAGGAAGGAGCGCUUACUCGUUAAUAAGAGUGAUGUUCGAUAACGAGUAUUUAUAGCAGGUAGGUCGCCUACUAUAGC [Arginine B K4 4]	207 nM	193 nM	168 nM	242 nM	199 nM
UUUGGUUGUGGUGUUGAUUAGGGAGCGGAAGGAGCGCCGAGGAGGGCAGGUAGGUCGCCGGAAUGUAGUGAUGUUGCAUAGAGGU [ExArgA.Ad]	325 nM	277 nM	198 nM	603 nM	341 nM
AUUUAUUCGUACUUUCAGUGAUGUUGAUAACGAGGACCGGUACGGCCGCCACUCGAUUUGGCGAUUUUGUAUUUUUUAUUCUAUA [JR_SSTryptoA_Sub010]	403 nM	474 nM	510 nM	415 nM	317 nM
GGAUAGGAUAGAGGAUAUGGCUUAUGCAGAAAUAACUUAUUGUGUAAAUCCAUAGGGAGUGAUGUUCCAGAAGGCUGUCCUAUCG [MatMod 16 - Jieux - Exclusion - FMN B]	821 nM	218 nM	235 nM	224 nM	202 nM
AGAUGACAGGGAGGAUAUCCUAAUAUGGGUGAUGUUAGCGAUGUUGAAGGUGUAGUGAUGUUAUGCGGAGAAGGCCCUGUUGUUU [BDazzled - #23 - Exc. FMN B]	82.4 nM	61.7 nM	115 nM	78.7 nM	78.5 nM
GAUAGGAAACUAUCAAAUCGGGAAACCGAUACCAGUAUGGAUUCAUACCCUUGGCAGCGGGAUUAUAAAAUAGGAGUGAUGUUCC [Theophylline A K4 16]	219 nM	213 nM	220 nM	241 nM	189 nM
UUUUAUUAAUUCUUCUAGUGAUGUUAGAUACGAGGACCGGUACGGCCGCCACUCGCUUAUUGGUUUAUAAAUUUUAUAUUAUUUA [JR_SSTryptoA_Sub016]	292 nM	296 nM	286 nM	294 nM	249 nM
CGAGUCCUGAGGAGUGAUGUUCCUCGGCCACGAGGACCGGUACGGCCGCCACUCGUUACUCGAGCUUAGUAGCUAGCACUAAGCC [Zaussora]	189 nM	164 nM	179 nM	186 nM	109 nM
AAAGUCGGCUGUGAUACCAGUCAUAUAACAACAUAUCGCAGUGAUGUUGCGAGAUAGGAUGACCCUUGGCAGCACUCAGUACGAU [Same State Theophylline B GF 6]	349 nM	360 nM	380 nM	331 nM	338 nM
CGAUGUUCCUGGGAUACCAGUCGGAGUCUCAGAGCUCGGAGUGAUGUUCUGGGAUGUUUCGGCCCUUGGCAGCUCUGGGACUCCC [#2 Exclusion - Theophylline B Attempt #23 (HarryS)]	843 nM	615 nM	818 nM	682 nM	722 nM
AGACUACCACACUGUCAAUAGACAGUGAACUCGGAUAUGCUGAUAAGCAGAAGGAGUGAUGUUCCGAGGUAGUCAAUAAAAUAAU [FmnAX 13 C32+G66]	263 nM	316 nM	568 nM	448 nM	521 nM
UUCUUGAUGGAAACAUCGAGGAUCACUGAUACCAGUAUCGAUAGAUACCCUUGGCAGCAGUGUCGGUGGUCACGAGUGAUGUUCG [Ex Theophylline A K4 12]	718 nM	731 nM	811 nM	719 nM	787 nM
AGAUCUGUAACAGAUACCAGAGGACGAUGAUCGGACAGUGAUGUUAUCUGUCAGUCGUCGCUCCCUUGGCAGCUGUUACAGAUCA [Omei KL Theo B SS B v3]	78.1 nM	43.1 nM	73.7 nM	94.9 nM	65.2 nM
AAAAUUGCGGUCGAAAGAACUUCUUGCAUACGAGGACCGGUACGGCCGCCACUCGAGUCAAGUGAUGUUUGAUUUUCUAUUAUUA [JR_ExcTryptoA_Sub013]	135 nM	170 nM	160 nM	205 nM	153 nM
GGGAGAAGUGCGGCCGCCACUGAGAAAGAAGAAGAAUAUAGUGAUGUUAUAUAGGAAAGGAAGAACAGGACCGGGCAUAAGAGGG [SSTryptB.A]	104 nM	148 nM	126 nM	131 nM	99.1 nM
AGAGUUAUGAGAGGAUAUGCGGCUAGUACUCAAAGAGUACUAGCAGCGGAGUGAUGUUCUGUGAAAGCAGAAGGUUCAUAACUCA [#07 K4 FMN B Same State]	159 nM	1350 nM	1100 nM	907 nM	1350 nM
UGAGAUAUGAGGGAUACCAGCCAUAAGGAAAGUGUGAUGAGUGAUGUUCUGACAAGCCAAGGCCCUUGGCAGCUUUAAUAGCAUC [whbob_SS_Theo_B_th77]	328 nM	191 nM	280 nM	167 nM	267 nM
GGAGAGCGAAAAGGAUAUGCGUCCGUCAAAAUUAUGUAGCGCGGAAAAUGGUAGUGAUGUUGCAAAGCAGAAGGUUUCAGAUGUA [theeternabot_sameState_KL_FMN_B_43]	260 nM	259 nM	450 nM	519 nM	216 nM
